Measurements reported in patent US20210079083A1 (INSTITUTE FOR BASIC SCIENCE, published 2021).

T1: Human Angiopoietin-2 full-length (hAng2) (human, UniProt O15123 19-496)
T1 construct: The cell assays used full-length hAng2 from R&D Systems; also called human Ang2; A2
T1 sequence: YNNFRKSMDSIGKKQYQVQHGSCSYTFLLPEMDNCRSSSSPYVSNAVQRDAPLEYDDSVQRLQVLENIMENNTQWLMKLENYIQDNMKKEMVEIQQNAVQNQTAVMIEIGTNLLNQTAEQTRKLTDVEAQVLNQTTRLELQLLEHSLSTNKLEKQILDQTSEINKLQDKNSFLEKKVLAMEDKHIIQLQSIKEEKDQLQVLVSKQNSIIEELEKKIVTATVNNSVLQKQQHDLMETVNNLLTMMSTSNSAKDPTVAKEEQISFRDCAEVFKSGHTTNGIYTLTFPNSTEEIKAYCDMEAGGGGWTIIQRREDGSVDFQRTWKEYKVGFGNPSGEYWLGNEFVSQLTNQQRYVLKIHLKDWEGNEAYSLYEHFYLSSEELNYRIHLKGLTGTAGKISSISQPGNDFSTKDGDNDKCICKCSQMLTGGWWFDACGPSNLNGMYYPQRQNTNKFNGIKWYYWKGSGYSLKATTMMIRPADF


target: T1, Human Angiopoietin-2 full-length (hAng2); assay: BLI (Octet), antibody fixed on AR2G sensor, hAng2 3.125-50 nM in solution, 1:1 global fit
Procedure: The affinity of humanized anti-Ang2 antibody against hAng2 was measured using Octet system (ForteBio). Specifically, buffer and samples were measured in total 200 μl/well using Black 96-well plates (96 well F-type black plates, Greiner). […] After the hydration, humanized anti-Ang2 antibody was diluted in 10 mM sodium acetate, pH 6.0 buffer at a concentration of 10 μg/ml, fixed on AR2G biosensor, and blocked with 1M ethanolamine. The recombinant hAng2 was diluted to 50, 25, 12.5, 6.25, 3.125, and 0 nM with 1× kinetic buffer, and subjected to association for 300 sec and dissociation for 900 sec.
The affinities of humanized 2C8 antibodies to hAng2 were in Table 15.

Binder | Kd | koff | kon
humanized anti-Ang2 antibody 2C8H32 (antibody, V domains shown, Full-length human IgG1) VH: QVQLVQSGAEVKKPGASVKVSCKASGYSFTSYWMHWVRQAPGQGLEWIGMIDPSDSETRLNQKFKDKASMTRDTSTSTVYMELSSLRSEDTAVYYCARRFYYGSDWYFDVWGQGTLVTVSS VL: DIQLTQSPSFLSASVGDRVSITCKASQDVGTAVAWYQQKPGKAPKLLIYWASTRHTGVPDRFSGSGSGTEFTLTISSLQPEDFATYYCQQYSSYPLTFGQGTKVEIK | 197 pM | 1.49e-05 s⁻¹ | 75700 M⁻¹ s⁻¹
4B9H11G4 (human IgG4 class antibody of 4B9H11) (antibody, V domains shown, The heavy chain constant region was replaced by an IgG4 class constant region; The sentence prints '4B9 heavy chain gene' where 4B9H11 is meant; also called 4B9H11-IgG4) VH: QVQLVESGGGLVKPGGSLRLSCAASGFTFSDYYMYWIRQAPGKGLEWVSTISVGGSFTYYPDSVKGRFTISRDNAKNSLYLQMNSLRAEDTAVYYCARDWGLRPWFVYWGQGTLVTVSS VL: DIQMTQSPSSLSASVGDRVTITCKASQDVSTAVAWYQQKPGKAPKLLIYWASTRHTGVPSRFSGSGSGTDFTLTISSLQPEDFATYYCQQHYSTPPTFGQGTKVEIK | 80 pM | 3.46e-05 s⁻¹ | 432000 M⁻¹ s⁻¹
humanized anti-Ang2 antibody 2C8H21 (antibody, V domains shown, Full-length human IgG1) VH: QVQLVQSGAEVKKPGASVKVSCKASGYSFTSYWMHWVRQAPGQGLEWIGMIDPSDSETRLNQKFKDRVTMTRDTSTSTVYMELSSLRSEDTAVYYCARRFYYGSDWYFDVWGQGTLVTVSS VL: DIQLTQSPSFLSASVGDRVTITCKASQDVGTAVAWYQQKPGKAPKLLIYWASTRHTGVPSRFSGSGSGTEFTLTISSLQPEDFATYYCQQYSSYPLTFGQGTKVEIK | 135 pM | 1.5e-05 s⁻¹ | 111000 M⁻¹ s⁻¹
humanized anti-Ang2 antibody 2C8H41 (antibody, V domains shown, Full-length human IgG1) VH: QVQLVQSGAEVKKPGASVKVSCKASGYSFTSYWMHWVKQAPGQGLEWIGMIDPSDSETRLNQKFKDKASMTRDTSTSTVYMELSSLRSEDTAVYYCARRFYYGSDWYFDVWGQGTLVTVSS VL: DIQLTQSPSFLSASVGDRVTITCKASQDVGTAVAWYQQKPGKAPKLLIYWASTRHTGVPSRFSGSGSGTEFTLTISSLQPEDFATYYCQQYSSYPLTFGQGTKVEIK | 249 pM | 1.67e-05 s⁻¹ | 67000 M⁻¹ s⁻¹
humanized anti-Ang2 antibody 2C8H42 (antibody, V domains shown, Full-length human IgG1) VH: QVQLVQSGAEVKKPGASVKVSCKASGYSFTSYWMHWVKQAPGQGLEWIGMIDPSDSETRLNQKFKDKASMTRDTSTSTVYMELSSLRSEDTAVYYCARRFYYGSDWYFDVWGQGTLVTVSS VL: DIQLTQSPSFLSASVGDRVSITCKASQDVGTAVAWYQQKPGKAPKLLIYWASTRHTGVPDRFSGSGSGTEFTLTISSLQPEDFATYYCQQYSSYPLTFGQGTKVEIK | 381 pM | 3.07e-05 s⁻¹ | 80600 M⁻¹ s⁻¹
humanized anti-Ang2 antibody 2C8H23 (antibody, V domains shown, Full-length human IgG1) VH: QVQLVQSGAEVKKPGASVKVSCKASGYSFTSYWMHWVRQAPGQGLEWIGMIDPSDSETRLNQKFKDRVTMTRDTSTSTVYMELSSLRSEDTAVYYCARRFYYGSDWYFDVWGQGTLVTVSS VL: DIQLTQSPSFLSASVGDRVSITCKASQDVGTAVAWYQQKPGKAPKLLIYWASTRHTGVPDRFSGSGSGTEFTLTISSLQPEDFADYFCQQYSSYPLTFGQGTKVEIK | 287 pM | 2.28e-05 s⁻¹ | 79500 M⁻¹ s⁻¹
humanized anti-Ang2 antibody 2C8H31 (antibody, V domains shown, Full-length human IgG1) VH: QVQLVQSGAEVKKPGASVKVSCKASGYSFTSYWMHWVRQAPGQGLEWIGMIDPSDSETRLNQKFKDKASMTRDTSTSTVYMELSSLRSEDTAVYYCARRFYYGSDWYFDVWGQGTLVTVSS VL: DIQLTQSPSFLSASVGDRVTITCKASQDVGTAVAWYQQKPGKAPKLLIYWASTRHTGVPSRFSGSGSGTEFTLTISSLQPEDFATYYCQQYSSYPLTFGQGTKVEIK | 266 pM | 2.21e-05 s⁻¹ | 83200 M⁻¹ s⁻¹
humanized anti-Ang2 antibody 2C8H33 (antibody, V domains shown, Full-length human IgG1) VH: QVQLVQSGAEVKKPGASVKVSCKASGYSFTSYWMHWVRQAPGQGLEWIGMIDPSDSETRLNQKFKDKASMTRDTSTSTVYMELSSLRSEDTAVYYCARRFYYGSDWYFDVWGQGTLVTVSS VL: DIQLTQSPSFLSASVGDRVSITCKASQDVGTAVAWYQQKPGKAPKLLIYWASTRHTGVPDRFSGSGSGTEFTLTISSLQPEDFADYFCQQYSSYPLTFGQGTKVEIK | 44.5 pM | 3.99e-06 s⁻¹ | 89600 M⁻¹ s⁻¹
humanized anti-Ang2 antibody 2C8H53 (antibody, V domains shown, Full-length human IgG1) VH: QVQLVQSGAEVKKPGASVKVSCKASGYSFTSYWMHWVKQAPGQGLEWIGMIDPSDSETRLNQKFKDKASLTVDTSTSTVYMELSSLRSEDTAVYYCARRFYYGSDWYFDVWGQGTLVTVSS VL: DIQLTQSPSFLSASVGDRVSITCKASQDVGTAVAWYQQKPGKAPKLLIYWASTRHTGVPDRFSGSGSGTEFTLTISSLQPEDFADYFCQQYSSYPLTFGQGTKVEIK | 384 pM | 3.11e-05 s⁻¹ | 80900 M⁻¹ s⁻¹
humanized anti-Ang2 antibody 2C8H43 (antibody, V domains shown, Full-length human IgG1) VH: QVQLVQSGAEVKKPGASVKVSCKASGYSFTSYWMHWVKQAPGQGLEWIGMIDPSDSETRLNQKFKDKASMTRDTSTSTVYMELSSLRSEDTAVYYCARRFYYGSDWYFDVWGQGTLVTVSS VL: DIQLTQSPSFLSASVGDRVSITCKASQDVGTAVAWYQQKPGKAPKLLIYWASTRHTGVPDRFSGSGSGTEFTLTISSLQPEDFADYFCQQYSSYPLTFGQGTKVEIK | 373 pM | 2.65e-05 s⁻¹ | 71100 M⁻¹ s⁻¹
humanized anti-Ang2 antibody 2C8H12 (antibody, V domains shown, Full-length human IgG1) VH: QVQLVQSGAEVKKPGASVKVSCKASGYTFTSYWMHWVRQAPGQGLEWMGMIDPSDSETRLNQKFKDRVTMTRDTSTSTVYMELSSLRSEDTAVYYCARRFYYGSDWYFDVWGQGTLVTVSS VL: DIQLTQSPSFLSASVGDRVSITCKASQDVGTAVAWYQQKPGKAPKLLIYWASTRHTGVPDRFSGSGSGTEFTLTISSLQPEDFATYYCQQYSSYPLTFGQGTKVEIK | 139 pM | 1.33e-05 s⁻¹ | 95200 M⁻¹ s⁻¹

The remaining lines, values ahead:

Kd | koff | kon | Binder
10.5 pM | 4.35e-06 s⁻¹ | 415000 M⁻¹ s⁻¹ | 2C8H11G4 (human IgG4 class antibody of 2C8H11) (antibody, V domains shown, The heavy chain constant region (CH1-hinge-CH2-CH3) was replaced by an IgG4 class constant region; also called 2C8H11-IgG4) VH: QVQLVQSGAEVKKPGASVKVSCKASGYTFTSYWMHWVRQAPGQGLEWMGMIDPSDSETRLNQKFKDRVTMTRDTSTSTVYMELSSLRSEDTAVYYCARRFYYGSDWYFDVWGQGTLVTVSS VL: DIQLTQSPSFLSASVGDRVTITCKASQDVGTAVAWYQQKPGKAPKLLIYWASTRHTGVPSRFSGSGSGTEFTLTISSLQPEDFATYYCQQYSSYPLTFGQGTKVEIK
246 pM | 2.77e-05 s⁻¹ | 113000 M⁻¹ s⁻¹ | humanized anti-Ang2 antibody 2C8H13 (antibody, V domains shown, Full-length human IgG1) VH: QVQLVQSGAEVKKPGASVKVSCKASGYTFTSYWMHWVRQAPGQGLEWMGMIDPSDSETRLNQKFKDRVTMTRDTSTSTVYMELSSLRSEDTAVYYCARRFYYGSDWYFDVWGQGTLVTVSS VL: DIQLTQSPSFLSASVGDRVSITCKASQDVGTAVAWYQQKPGKAPKLLIYWASTRHTGVPDRFSGSGSGTEFTLTISSLQPEDFADYFCQQYSSYPLTFGQGTKVEIK
137 pM | 9.61e-06 s⁻¹ | 70200 M⁻¹ s⁻¹ | humanized anti-Ang2 antibody 2C8H51 (antibody, V domains shown, Full-length human IgG1) VH: QVQLVQSGAEVKKPGASVKVSCKASGYSFTSYWMHWVKQAPGQGLEWIGMIDPSDSETRLNQKFKDKASLTVDTSTSTVYMELSSLRSEDTAVYYCARRFYYGSDWYFDVWGQGTLVTVSS VL: DIQLTQSPSFLSASVGDRVTITCKASQDVGTAVAWYQQKPGKAPKLLIYWASTRHTGVPSRFSGSGSGTEFTLTISSLQPEDFATYYCQQYSSYPLTFGQGTKVEIK
243 pM | 1.99e-05 s⁻¹ | 81900 M⁻¹ s⁻¹ | humanized anti-Ang2 antibody 2C8H52 (antibody, V domains shown, Full-length human IgG1) VH: QVQLVQSGAEVKKPGASVKVSCKASGYSFTSYWMHWVKQAPGQGLEWIGMIDPSDSETRLNQKFKDKASLTVDTSTSTVYMELSSLRSEDTAVYYCARRFYYGSDWYFDVWGQGTLVTVSS VL: DIQLTQSPSFLSASVGDRVSITCKASQDVGTAVAWYQQKPGKAPKLLIYWASTRHTGVPDRFSGSGSGTEFTLTISSLQPEDFATYYCQQYSSYPLTFGQGTKVEIK
115 pM | 6.84e-06 s⁻¹ | 59600 M⁻¹ s⁻¹ | humanized anti-Ang2 antibody 2C8H22 (antibody, V domains shown, Full-length human IgG1) VH: QVQLVQSGAEVKKPGASVKVSCKASGYSFTSYWMHWVRQAPGQGLEWIGMIDPSDSETRLNQKFKDRVTMTRDTSTSTVYMELSSLRSEDTAVYYCARRFYYGSDWYFDVWGQGTLVTVSS VL: DIQLTQSPSFLSASVGDRVSITCKASQDVGTAVAWYQQKPGKAPKLLIYWASTRHTGVPDRFSGSGSGTEFTLTISSLQPEDFATYYCQQYSSYPLTFGQGTKVEIK
121 pM | 8.94e-06 s⁻¹ | 73700 M⁻¹ s⁻¹ | humanized anti-Ang2 antibody 4B9H21 (antibody, V domains shown, Full-length human IgG1) VH: QVQLVESGGGLVKPGGSLRLSCAASGFTFSDYYMYWVRQAPGKGLEWVSTISVGGSFTYYPDSVKGRFTISRDNAKNSLYLQMNSLRAEDTAVYYCARDWGLRPWFVYWGQGTLVTVSS VL: DIQMTQSPSSLSASVGDRVTITCKASQDVSTAVAWYQQKPGKAPKLLIYWASTRHTGVPSRFSGSGSGTDFTLTISSLQPEDFATYYCQQHYSTPPTFGQGTKVEIK
